Reference: US20240261333A1 (published 2024)

Assays:
Test in all cases: co-IP with anti-FLAG, N-FLAG B3GNT2, mass spectrometry
RPS26 = RPS26 (human, UniProt P62854 2-115)
Experimental: (§1) Cells were plated in 10-cm cell culture dishes and grown to 60-80% confluency. For each condition, two biological replicates were harvested for co-IP. Cells were washed with PBS and 4 mL of lysis buffer (20 mM HEPES, 1% Triton X-100, 150 mM NaCl, 1 mM EDTA, and 10% glycerol) containing protease inhibitor cocktail was added. Cells were scraped and lysate was incubated at 4° C. under rotary agitation for 1 h. Lysate was centrifuged at 14,000×g for 10 min at 4° C. Supernatant was transferred to a new tube and an aliquot was taken as the input. […] For Western blots, 10 μg/mL Chicken Anti-FLAG (Aves labs ET-DY100) and IgY control (R&D Systems AB-101-C) antibodies were biotinylated (Thermo Fisher Scientific 90407) and added to the respective conditions. Lysates with antibodies were incubated at 4° C. under rotary agitation overnight. For each mL of lysate, 50 μL of Pierce Protein A/G Magnetic Beads (Mass spectrometry; Thermo Fisher Scientific 88803) or Pierce Streptavidin Magnetic Beads (Western blot; Thermo Fisher Scientific 88817) was washed twice with lysis buffer. Lysates with antibodies were added to the beads and incubated at 4° C. under rotary agitation for 4 h. Beads were washed with lysis buffer 3 times and resuspended in lysis buffer for storage.
(§2) Magnetic beads were resuspended in 100 mM Tris pH 7.8, reduced, alkylated and digested with trypsin at 37° ° C. overnight. This solution was subjected to solid phase extraction to concentrate the peptides and remove unwanted reagents followed by injection onto a Shimadzu HPLC with fraction collector. Eight fractions were collected and after concentration were injected on a Waters NanoAcquity HPLC equipped with a self-packed Aeris 3 μm C18 analytical column 0.075 mm by 20 cm, (Phenomenex). Peptides were eluted using standard reverse-phase gradients. The effluent from the column was analyzed using a Thermo Orbitrap Elite mass spectrometer (nanospray configuration) operated in a data dependent manner for 54 minutes. The resulting fragmentation spectra were correlated against the known database using Proteome Discover 1.4 (Thermo Fisher Scientific).

CALML5 = biological target: T1, CALML5 (human, UniProt Q9NZT1 2-146)
T1 construct: also called NP_059118.2
T1 sequence (looked up): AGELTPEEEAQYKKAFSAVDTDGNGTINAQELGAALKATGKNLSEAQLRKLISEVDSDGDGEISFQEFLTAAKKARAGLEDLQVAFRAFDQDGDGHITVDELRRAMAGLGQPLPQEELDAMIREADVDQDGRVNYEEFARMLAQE
Experimental: as §1, §2

FLG = biological target: T2, FLG (human, UniProt P20930 1-4061, limits assumed)
T2 construct: also called NP_002007.1
T2 sequence (P20930 whole entry): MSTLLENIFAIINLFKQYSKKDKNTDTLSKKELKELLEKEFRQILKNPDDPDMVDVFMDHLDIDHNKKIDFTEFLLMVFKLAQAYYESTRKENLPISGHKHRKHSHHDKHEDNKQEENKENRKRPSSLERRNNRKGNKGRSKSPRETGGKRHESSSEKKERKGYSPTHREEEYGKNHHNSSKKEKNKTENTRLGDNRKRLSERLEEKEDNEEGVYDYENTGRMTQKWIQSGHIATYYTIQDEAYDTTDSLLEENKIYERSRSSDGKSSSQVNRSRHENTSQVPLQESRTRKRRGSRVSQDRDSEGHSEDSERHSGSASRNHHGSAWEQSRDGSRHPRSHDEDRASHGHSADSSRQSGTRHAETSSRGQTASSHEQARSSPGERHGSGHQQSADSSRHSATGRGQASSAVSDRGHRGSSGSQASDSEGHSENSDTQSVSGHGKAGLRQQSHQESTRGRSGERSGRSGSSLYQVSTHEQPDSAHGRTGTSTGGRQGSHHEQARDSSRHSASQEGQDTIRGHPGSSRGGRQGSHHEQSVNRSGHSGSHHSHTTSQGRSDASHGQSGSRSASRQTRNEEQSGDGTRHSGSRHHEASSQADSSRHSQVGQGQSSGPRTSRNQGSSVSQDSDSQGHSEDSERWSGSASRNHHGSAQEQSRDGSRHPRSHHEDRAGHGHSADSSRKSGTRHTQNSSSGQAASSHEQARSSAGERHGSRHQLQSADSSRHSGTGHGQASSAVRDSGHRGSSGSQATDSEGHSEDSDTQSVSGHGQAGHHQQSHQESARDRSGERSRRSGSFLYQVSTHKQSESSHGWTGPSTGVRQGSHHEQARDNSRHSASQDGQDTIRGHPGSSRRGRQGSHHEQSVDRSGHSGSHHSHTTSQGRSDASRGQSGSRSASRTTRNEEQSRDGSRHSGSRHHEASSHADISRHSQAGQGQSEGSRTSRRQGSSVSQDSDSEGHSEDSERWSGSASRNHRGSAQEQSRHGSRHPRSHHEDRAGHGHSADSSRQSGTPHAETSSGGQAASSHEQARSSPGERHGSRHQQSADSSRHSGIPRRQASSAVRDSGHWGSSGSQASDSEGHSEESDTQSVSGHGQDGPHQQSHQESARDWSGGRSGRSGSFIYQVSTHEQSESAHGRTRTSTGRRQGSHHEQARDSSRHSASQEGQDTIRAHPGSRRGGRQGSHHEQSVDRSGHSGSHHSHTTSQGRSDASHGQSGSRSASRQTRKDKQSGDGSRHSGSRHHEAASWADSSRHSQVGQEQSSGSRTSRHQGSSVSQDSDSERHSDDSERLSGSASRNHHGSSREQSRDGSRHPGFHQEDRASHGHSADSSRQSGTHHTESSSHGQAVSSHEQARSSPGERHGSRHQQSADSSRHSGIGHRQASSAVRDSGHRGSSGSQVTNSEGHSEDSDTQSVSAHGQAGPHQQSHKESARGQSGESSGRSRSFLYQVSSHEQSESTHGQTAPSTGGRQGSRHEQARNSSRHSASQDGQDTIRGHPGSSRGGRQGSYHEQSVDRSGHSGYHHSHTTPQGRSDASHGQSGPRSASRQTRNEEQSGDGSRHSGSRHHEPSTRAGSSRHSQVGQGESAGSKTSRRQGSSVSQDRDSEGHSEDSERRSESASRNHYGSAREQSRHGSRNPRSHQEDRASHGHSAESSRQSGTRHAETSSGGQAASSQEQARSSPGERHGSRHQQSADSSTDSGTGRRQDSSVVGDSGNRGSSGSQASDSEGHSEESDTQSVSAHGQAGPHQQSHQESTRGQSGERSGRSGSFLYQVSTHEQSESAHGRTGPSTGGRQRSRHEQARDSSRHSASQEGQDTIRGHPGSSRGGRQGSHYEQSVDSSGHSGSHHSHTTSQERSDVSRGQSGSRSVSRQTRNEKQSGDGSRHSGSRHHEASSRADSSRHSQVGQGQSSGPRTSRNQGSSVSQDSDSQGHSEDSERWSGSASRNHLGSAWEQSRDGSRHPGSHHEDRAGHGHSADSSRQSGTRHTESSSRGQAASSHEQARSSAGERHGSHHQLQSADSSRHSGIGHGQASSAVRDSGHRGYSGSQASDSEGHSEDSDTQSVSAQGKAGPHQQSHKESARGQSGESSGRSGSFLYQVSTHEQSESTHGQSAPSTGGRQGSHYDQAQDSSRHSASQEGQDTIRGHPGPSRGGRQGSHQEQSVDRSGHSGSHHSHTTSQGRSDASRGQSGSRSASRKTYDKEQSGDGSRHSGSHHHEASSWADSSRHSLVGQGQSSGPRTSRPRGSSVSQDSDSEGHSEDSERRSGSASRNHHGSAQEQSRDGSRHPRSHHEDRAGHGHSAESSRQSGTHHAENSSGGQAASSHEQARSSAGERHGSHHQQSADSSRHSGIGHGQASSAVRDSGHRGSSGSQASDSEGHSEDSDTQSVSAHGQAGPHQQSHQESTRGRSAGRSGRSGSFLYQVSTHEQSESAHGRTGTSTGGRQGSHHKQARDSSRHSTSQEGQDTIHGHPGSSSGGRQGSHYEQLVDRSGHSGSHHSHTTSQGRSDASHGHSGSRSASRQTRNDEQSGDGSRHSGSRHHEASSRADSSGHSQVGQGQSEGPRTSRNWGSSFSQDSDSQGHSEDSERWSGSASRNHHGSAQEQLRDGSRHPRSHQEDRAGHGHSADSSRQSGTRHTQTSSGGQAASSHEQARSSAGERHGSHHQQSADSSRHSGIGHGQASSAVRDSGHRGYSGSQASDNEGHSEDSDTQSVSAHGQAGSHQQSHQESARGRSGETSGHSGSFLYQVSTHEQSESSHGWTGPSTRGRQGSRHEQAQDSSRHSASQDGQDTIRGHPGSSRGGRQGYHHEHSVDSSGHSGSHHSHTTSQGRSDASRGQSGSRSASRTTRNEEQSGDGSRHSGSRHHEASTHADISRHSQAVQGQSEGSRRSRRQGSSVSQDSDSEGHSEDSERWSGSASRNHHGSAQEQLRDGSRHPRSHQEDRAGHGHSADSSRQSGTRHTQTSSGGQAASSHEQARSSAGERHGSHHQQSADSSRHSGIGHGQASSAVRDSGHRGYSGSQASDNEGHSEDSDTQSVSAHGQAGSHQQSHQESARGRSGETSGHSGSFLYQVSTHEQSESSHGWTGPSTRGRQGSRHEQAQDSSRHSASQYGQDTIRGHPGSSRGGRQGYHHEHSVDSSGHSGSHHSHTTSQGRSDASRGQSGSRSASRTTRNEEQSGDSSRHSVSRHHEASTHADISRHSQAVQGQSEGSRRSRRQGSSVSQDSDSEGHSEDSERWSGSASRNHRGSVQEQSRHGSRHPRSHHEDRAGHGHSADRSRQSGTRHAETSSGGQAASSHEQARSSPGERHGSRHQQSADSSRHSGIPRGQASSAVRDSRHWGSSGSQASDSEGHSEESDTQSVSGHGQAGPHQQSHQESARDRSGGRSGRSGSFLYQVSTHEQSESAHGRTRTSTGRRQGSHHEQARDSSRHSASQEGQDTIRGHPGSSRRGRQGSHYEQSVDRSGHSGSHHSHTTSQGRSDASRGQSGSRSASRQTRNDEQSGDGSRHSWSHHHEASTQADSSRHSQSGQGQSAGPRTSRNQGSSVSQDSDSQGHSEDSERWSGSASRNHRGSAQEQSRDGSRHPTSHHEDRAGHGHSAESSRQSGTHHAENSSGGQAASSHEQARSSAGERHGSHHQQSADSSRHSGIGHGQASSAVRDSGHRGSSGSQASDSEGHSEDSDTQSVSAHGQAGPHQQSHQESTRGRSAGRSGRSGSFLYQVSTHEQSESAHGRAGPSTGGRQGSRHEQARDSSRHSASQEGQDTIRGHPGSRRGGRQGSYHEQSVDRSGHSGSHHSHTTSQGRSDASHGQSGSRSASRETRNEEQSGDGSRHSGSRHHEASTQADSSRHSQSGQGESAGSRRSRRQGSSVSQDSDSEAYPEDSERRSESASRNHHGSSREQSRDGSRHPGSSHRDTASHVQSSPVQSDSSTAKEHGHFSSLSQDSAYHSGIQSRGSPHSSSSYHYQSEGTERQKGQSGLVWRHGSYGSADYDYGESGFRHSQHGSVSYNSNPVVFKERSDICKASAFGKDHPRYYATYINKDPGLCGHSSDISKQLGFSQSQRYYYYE
Experimental: as §1, §2

SYNCRIP = biological target: T3, SYNCRIP (human, UniProt O60506-3 2-562, limits assumed)
T3 construct: also called NP_001153148.1 (+1)
T3 sequence (looked up): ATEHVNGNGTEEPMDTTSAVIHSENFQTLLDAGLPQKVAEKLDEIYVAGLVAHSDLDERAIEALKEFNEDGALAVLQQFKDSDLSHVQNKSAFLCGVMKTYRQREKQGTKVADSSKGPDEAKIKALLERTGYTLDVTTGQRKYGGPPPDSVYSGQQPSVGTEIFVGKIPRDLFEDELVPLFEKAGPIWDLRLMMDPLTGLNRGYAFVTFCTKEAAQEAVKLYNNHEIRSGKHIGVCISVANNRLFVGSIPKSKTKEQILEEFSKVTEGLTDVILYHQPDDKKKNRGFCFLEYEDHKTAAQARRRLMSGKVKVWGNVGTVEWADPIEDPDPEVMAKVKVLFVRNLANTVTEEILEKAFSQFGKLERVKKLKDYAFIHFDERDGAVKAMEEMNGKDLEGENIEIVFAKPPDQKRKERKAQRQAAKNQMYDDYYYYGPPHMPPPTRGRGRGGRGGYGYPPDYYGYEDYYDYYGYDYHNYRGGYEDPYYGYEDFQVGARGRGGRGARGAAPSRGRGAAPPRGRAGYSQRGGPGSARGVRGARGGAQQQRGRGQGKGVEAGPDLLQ
Experimental: as §1, §2

NAP1L1 = biological target: T4, NAP1L1 (human, UniProt P55209 2-388)
T4 construct: also called NP_001294853.1 (+1)
T4 sequence (looked up): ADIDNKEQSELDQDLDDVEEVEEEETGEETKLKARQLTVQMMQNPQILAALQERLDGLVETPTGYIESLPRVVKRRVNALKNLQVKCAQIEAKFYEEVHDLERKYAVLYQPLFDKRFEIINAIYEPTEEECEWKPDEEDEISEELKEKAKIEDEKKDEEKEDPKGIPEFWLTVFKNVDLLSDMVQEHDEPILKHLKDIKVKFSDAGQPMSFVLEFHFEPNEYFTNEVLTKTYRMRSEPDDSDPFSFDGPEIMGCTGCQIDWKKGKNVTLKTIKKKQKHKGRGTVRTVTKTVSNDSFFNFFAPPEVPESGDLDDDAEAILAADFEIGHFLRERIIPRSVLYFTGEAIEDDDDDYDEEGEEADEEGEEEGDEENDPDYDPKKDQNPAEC
Experimental: as §1, §2

RPS20 = RPS20 (human, UniProt P60866 2-119)
Experimental: as §1, §2

CPSF7 = biological target: T5, CPSF7 (human, UniProt Q8N684 1-471)
T5 construct: also called NP_001129512.1 (+5)
T5 sequence (looked up): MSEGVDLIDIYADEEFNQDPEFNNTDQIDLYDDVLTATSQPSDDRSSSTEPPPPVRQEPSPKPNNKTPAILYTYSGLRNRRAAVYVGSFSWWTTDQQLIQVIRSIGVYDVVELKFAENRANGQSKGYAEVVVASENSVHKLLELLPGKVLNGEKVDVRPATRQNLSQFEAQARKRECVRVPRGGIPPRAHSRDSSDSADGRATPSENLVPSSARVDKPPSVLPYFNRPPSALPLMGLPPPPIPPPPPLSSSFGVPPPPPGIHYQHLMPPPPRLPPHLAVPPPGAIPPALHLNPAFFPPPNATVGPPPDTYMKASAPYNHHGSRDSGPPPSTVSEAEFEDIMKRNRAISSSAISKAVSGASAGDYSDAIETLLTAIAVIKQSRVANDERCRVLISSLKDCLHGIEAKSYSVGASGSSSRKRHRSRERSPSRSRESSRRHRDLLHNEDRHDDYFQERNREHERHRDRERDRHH
Experimental: as §1, §2

B1: N-terminal FLAG tagged B3GNT2 (enzyme, human, UniProt Q9NY97 1-397, looked up)
chain: MSVGRRRIKLLGILMMANVFIYFIMEVSKSSSQEKNGKGEVIIPKEKFWKISTPPEAYWNREQEKLNRQYNPILSMLTNQTGEAGRLSNISHLNYCEPDLRVTSVVTGFNNLPDRFKDFLLYLRCRNYSLLIDQPDKCAKKPFLLLAIKSLTPHFARRQAIRESWGQESNAGNQTVVRVFLLGQTPPEDNHPDLSDMLKFESEKHQDILMWNYRDTFFNLSLKEVLFLRWVSTSCPDTEFVFKGDDDVFVNTHHILNYLNSLSKTKAKDLFIGDVIHNAGPHRDKKLKYYIPEVVYSGLYPPYAGGGGFLYSGHLALRLYHITDQVHLYPIDDVYTGMCLQKLGLVPEKHKGFRTFDIEEKNKNNICSYVDLMLVHSRKPQEMIDIWSQLQSAHLKC
notes: FLAG-tagged ORF overexpressed in cells; pulled down from lysate with mouse anti-FLAG; also called N-FLAG B3GNT2; N-term FLAG; not shown: N-terminal FLAG tag
RPS26
  co-IP mass spectrometry count: 6
CALML5
  co-IP mass spectrometry count: 0
FLG
  co-IP mass spectrometry count: 29
SYNCRIP
  co-IP mass spectrometry count: 2

B2: N-terminal FLAG tagged B3GNT2 (enzyme, human, UniProt Q9NY97 1-397, looked up)
chain: B1 chain
notes: FLAG-tagged ORF overexpressed in A375 cells; pulled down from the lysate with mouse anti-FLAG; also called N-FLAG B3GNT2; N-term FLAG; not shown: N-terminal FLAG tag
NAP1L1
  co-IP/MS count, N-term FLAG: 0
RPS20
  co-IP/MS count, N-term FLAG: 4
CPSF7
  co-IP/MS count, N-term FLAG: 12
